Among the data in publication PMC8803338 are fold change of ACTN co-precipitated with ACTC1, α-MHC-cre DKO hearts against CTL hearts values, retold here.

In the assay the target is sarcomeric α-Actin (ACTC1) (mouse (endogenous in heart)) (UniProt P68033). Briefly: co-IP; heart lysates of CTL and α-MHC-cre DKO mice, mouse anti-α-Actin, Protein A/G beads, Western blot, densitometry (n = 4).

As for “sarcomeric α-Actinin (ACTN) (from UniProt Q9JI91 1-894) (natural protein)”, the fold change of ACTN co-precipitated with ACTC1, α-MHC-cre DKO hearts against CTL hearts came to 0.63 fold.
